To fix the notation:
B1: E3 ubiquitin-protein ligase NEDD4, residues 836 to 881; numbered along this chain, P46934 (parent)
chain: EIEQGFLPKGWEVRHAPNGRPFFIDHNTKTTTWEDPRLKIPAHLRG

± gives the uncertainty stated by the source.

Variants of B1 are the subject of the data set. Description: abundance fitness (aPCA) (normalised: wild type 0, dead -1); higher = more abundant; growth selection in yeast, the domain comes from the species named. Conditions: Homo sapiens.
With L38D, the abundance fitness was determined as 0.036 ± 0.056.

For L38A, the abundance fitness was -0.103 ± 0.046.

Take L38E: the abundance fitness was -0.093 ± 0.068.

For K29L, the abundance fitness is -0.343 ± 0.037.

In the case of K29Y, the abundance fitness is -1 ± 0.34.

As to K29C, the abundance fitness was -0.323 ± 0.045.

Consider K29M, for which the abundance fitness was -0.303 ± 0.081.

For the variant K29I, the abundance fitness is -0.954 ± 0.21.

Regarding K29P, the abundance fitness was -0.889 ± 0.046.

As for K29E, the abundance fitness was -0.324 ± 0.079.

K29H: the abundance fitness was -0.224 ± 0.092.

For the variant K29T, the abundance fitness was -0.577 ± 0.089.

As for K29A, the abundance fitness is -0.237 ± 0.055.

Turning to K29Q, the abundance fitness is -0.063 ± 0.042.

For K29F, the abundance fitness is -0.446 ± 0.11.

K29N: the abundance fitness was -0.089 ± 0.038.

For K29V, the abundance fitness was -0.82 ± 0.097.

Consider K29S, for which the abundance fitness was -0.231 ± 0.053.

In the case of K29G, the abundance fitness was -0.002 ± 0.038.

On to W33A, for which the abundance fitness was -0.365 ± 0.056.

As to W33S, the abundance fitness was -0.307 ± 0.041.

With W33N, the abundance fitness is -0.431 ± 0.055.

Consider W33L, for which the abundance fitness is -0.433 ± 0.062.

With W33D, the abundance fitness was -0.484 ± 0.13.

In the case of W33R, the abundance fitness is -0.506 ± 0.047.

Consider W33E, for which the abundance fitness was -0.221 ± 0.067.

As to W33K, the abundance fitness is -0.462 ± 0.09.

As for W33V, the abundance fitness is -0.243 ± 0.05.

W33G: the abundance fitness was -0.372 ± 0.047.

As for W33C, the abundance fitness was -0.653 ± 0.13.

W33F: the abundance fitness was -0.142 ± 0.066.

For the variant W33Q, the abundance fitness is -0.337 ± 0.045.

Regarding F22K, the abundance fitness was -0.702 ± 0.1.

Take F22G: the abundance fitness is -0.712 ± 0.048.

Take F22E: the abundance fitness was -0.393 ± 0.067.

Consider F22N, for which the abundance fitness is -0.774 ± 0.1.

Regarding F22T, the abundance fitness was -0.536 ± 0.06.

For the variant F22V, the abundance fitness is -0.211 ± 0.048.

For the variant F22S, the abundance fitness is -0.797 ± 0.091.

For F22C, the abundance fitness is -0.122 ± 0.069.

Regarding F22R, the abundance fitness is -0.745 ± 0.079.

Turning to F22D, the abundance fitness is -0.35 ± 0.11.

Turning to F22A, the abundance fitness is -0.688 ± 0.08.

For the variant F22I, the abundance fitness was -0.168 ± 0.07.

Turning to F22H, the abundance fitness is -0.844 ± 0.17.

For the variant F22L, the abundance fitness is -0.151 ± 0.04.

For F22Q, the abundance fitness is -0.239 ± 0.033.

With R20M, the abundance fitness was -0.052 ± 0.052.

As for R20A, the abundance fitness turned out to be 0.016 ± 0.086.

As for R20K, the abundance fitness worked out at 0.16 ± 0.046.

With R20E, the abundance fitness was -0.035 ± 0.055.

With R20N, the abundance fitness is -0.271 ± 0.043.

Consider R20L, for which the abundance fitness was -0.223 ± 0.036.

R20Q: the abundance fitness is 0.137 ± 0.051.

For the variant R20W, the abundance fitness was -0.946 ± 0.14.

For R20Y, the abundance fitness was -0.577 ± 0.1.

For R20F, the abundance fitness was -0.78 ± 0.1.

Take R20H: the abundance fitness is -0.064 ± 0.071.

Regarding R20C, the abundance fitness is -0.278 ± 0.05.

Take R20P: the abundance fitness was -0.857 ± 0.17.

R20I: the abundance fitness was -0.257 ± 0.051.

For the variant R20G, the abundance fitness is -0.917 ± 0.12.

Turning to R20V, the abundance fitness was -0.105 ± 0.051.

R20D: the abundance fitness was -0.212 ± 0.083.

R20S: the abundance fitness was -0.087 ± 0.05.

Regarding R20T, the abundance fitness was -0.207 ± 0.07.

With T30Y, the abundance fitness is -0.818 ± 0.14.

For T30M, the abundance fitness was -0.206 ± 0.073.

T30A: the abundance fitness was -0.368 ± 0.075.

For T30L, the abundance fitness is -0.297 ± 0.04.

For the variant T30R, the abundance fitness was -0.2 ± 0.053.

For the variant T30K, the abundance fitness is -0.133 ± 0.073.

Regarding T30D, the abundance fitness was -0.347 ± 0.085.

For the variant T30F, the abundance fitness is -0.466 ± 0.033.

As for T30H, the abundance fitness was found to be 0.276 ± 0.087.

For T30V, the abundance fitness was -0.202 ± 0.039.

Take T30Q: the abundance fitness is -0.216 ± 0.058.

Regarding T30E, the abundance fitness was -0.206 ± 0.11.

For T30G, the abundance fitness is -0.595 ± 0.055.

In the case of T30N, the abundance fitness is -0.566 ± 0.11.

T30W: the abundance fitness was -1.38 ± 0.28.

Regarding T30P, the abundance fitness was -0.961 ± 0.19.

As for T30I, the abundance fitness is -0.056 ± 0.065.

With T30S, the abundance fitness is -0.136 ± 0.051.

For N27Y, the abundance fitness was -0.593 ± 0.047.

N27Q: the abundance fitness was -0.364 ± 0.036.

In the case of N27M, the abundance fitness is -0.409 ± 0.074.

Turning to N27W, the abundance fitness was -0.827 ± 0.12.

Turning to N27S, the abundance fitness is -0.302 ± 0.05.

On to N27A, for which the abundance fitness is -0.295 ± 0.057.

Turning to N27T, the abundance fitness was -0.091 ± 0.048.

Regarding N27C, the abundance fitness was -0.405 ± 0.062.

With N27G, the abundance fitness was -0.382 ± 0.033.

Turning to N27K, the abundance fitness is -0.168 ± 0.045.

As for N27P, the abundance fitness was -0.935 ± 0.16.

As for N27I, the abundance fitness is -0.105 ± 0.046.

Consider N27F, for which the abundance fitness is -0.189 ± 0.066.

Consider N27D, for which the abundance fitness was -0.12 ± 0.088.

Regarding N27H, the abundance fitness was -0.543 ± 0.11.

For N27L, the abundance fitness was -0.417 ± 0.053.

For T32V, the abundance fitness was -0.456 ± 0.085.

For the variant T32Y, the abundance fitness was -0.564 ± 0.07.

Turning to T32A, the abundance fitness is -0.779 ± 0.16.

Take T32H: the abundance fitness is -0.033 ± 0.087.

Regarding T32K, the abundance fitness is -0.775 ± 0.046.

Consider T32W, for which the abundance fitness is -0.807 ± 0.097.

As to T32M, the abundance fitness is -0.705 ± 0.1.

On to T32D, for which the abundance fitness was -1.05 ± 0.28.

Turning to T32R, the abundance fitness is -0.648 ± 0.044.

In the case of T32I, the abundance fitness was -0.471 ± 0.14.

For the variant T32L, the abundance fitness was -0.85 ± 0.1.

Take T32F: the abundance fitness was -0.574 ± 0.042.

In the case of T32S, the abundance fitness is -0.115 ± 0.05.

As for T32Q, the abundance fitness was 0.038 ± 0.082.

As to T32G, the abundance fitness is -0.619 ± 0.078.

For the variant T32E, the abundance fitness was -0.655 ± 0.048.

Consider T32C, for which the abundance fitness was -0.538 ± 0.12.

For N18G, the abundance fitness was -0.063 ± 0.034.

For the variant N18A, the abundance fitness was -0.69 ± 0.091.

Turning to N18V, the abundance fitness is -0.83 ± 0.076.

N18W: the abundance fitness is -0.664 ± 0.054.

With N18Y, the abundance fitness is -0.802 ± 0.23.

On to N18M, for which the abundance fitness was -0.907 ± 0.065.

Regarding N18K, the abundance fitness is -0.652 ± 0.15.

Regarding N18S, the abundance fitness was -0.241 ± 0.051.

On to N18R, for which the abundance fitness is -0.805 ± 0.11.

Regarding N18E, the abundance fitness is -0.232 ± 0.064.

With N18Q, the abundance fitness was -1.06 ± 0.34.

In the case of N18F, the abundance fitness is -0.75 ± 0.1.

For N18I, the abundance fitness is -0.976 ± 0.24.

N18L: the abundance fitness was -0.696 ± 0.087.

Take N18T: the abundance fitness was -0.29 ± 0.033.

For the variant N18H, the abundance fitness is -0.718 ± 0.097.

Take N18P: the abundance fitness is -0.255 ± 0.13.

Turning to N18C, the abundance fitness is -0.256 ± 0.093.

Turning to P17V, the abundance fitness was -0.191 ± 0.045.

Turning to P17T, the abundance fitness was -0.298 ± 0.07.

As to P17Y, the abundance fitness is -0.662 ± 0.13.

In the case of P17W, the abundance fitness is -0.419 ± 0.077.

As to T31C, the abundance fitness was -0.064 ± 0.054.

As to T31P, the abundance fitness is -0.901 ± 0.081.

As for T31K, the abundance fitness is -0.572 ± 0.12.

As to T31F, the abundance fitness is -0.42 ± 0.085.

In the case of T31Q, the abundance fitness is -0.158 ± 0.13.

Turning to T31A, the abundance fitness was -0.004 ± 0.044.

T31G: the abundance fitness was -0.398 ± 0.036.

In the case of T31H, the abundance fitness was -0.578 ± 0.083.

Turning to T31V, the abundance fitness was -0.185 ± 0.047.

In the case of T31W, the abundance fitness is -0.311 ± 0.071.

Turning to T31E, the abundance fitness is -0.44 ± 0.083.

Consider T31D, for which the abundance fitness was -0.576 ± 0.11.

Turning to T31S, the abundance fitness amounted to 0.006 ± 0.042.

In the case of T31M, the abundance fitness is -0.234 ± 0.052.

Consider T31N, for which the abundance fitness was -0.727 ± 0.15.

Consider T31Y, for which the abundance fitness is -0.511 ± 0.09.

Consider T31L, for which the abundance fitness is -0.356 ± 0.035.

G19L: the abundance fitness was -0.923 ± 0.11.

With G19E, the abundance fitness is -0.628 ± 0.072.

As to G19K, the abundance fitness is -0.826 ± 0.17.

As for G19M, the abundance fitness is -0.827 ± 0.094.

Take G19Q: the abundance fitness was -0.632 ± 0.15.

On to G19P, for which the abundance fitness is -0.695 ± 0.14.

On to G19T, for which the abundance fitness was -1.05 ± 0.38.

As to G19D, the abundance fitness was -0.943 ± 0.26.

For the variant G19W, the abundance fitness is -0.833 ± 0.1.

G19C: the abundance fitness is -0.929 ± 0.2.

As for G19N, the abundance fitness is -0.551 ± 0.12.

The record behind these values is the Human Domainome abundance scans (Beltran et al. 2025).
